Here are results for one substance from patent publication US20150273076A1, “SP1 POLYPEPTIDES, MODIFIED SP1 POLYPEPTIDES AND USES THEREOF” (Fulcrum SP Ltd., priority 2006, published 2015).

Series [1] can be described thus: SP1 stability following exposure to SDS and heating. The class given is physicochemical. On the procedure: The stability of the SP1 complex in the presence of SDS was examined by incubating purified SP1 with SDS at different molar ratios and at different temperatures. Dissociation of the SP1 complex to monomers required a molar ratio greater than 600:1 (SDS:SP1-monomer) accompanied by boiling before loading onto the gel.

Series [2] relates to Human colon adenocarcinoma (HT-29) cells. The series is described as follows: In-vitro cytotoxicity in HT-29 cells. It counts as cell-based. The conditions noted are these: HT-29 cells, dose inhibiting 50% of cell growth. An excerpt:
FIGS. 24a and 24b are graphs illustrating the in-vitro cytotoxic effects of SP1-DOX complex. FIG. 24a—HT-29 cells cultured in 96 well microtiter plates were exposed to uncomplexed DOX (closed oval, magenta) or SP1-DOX complex (closed triangle, blue) prepared as described in FIGS. 9-15, at the indicated concentrations. FIG. 24b—HT-29 cells were exposed to uncomplexed SP1 (without DOX) (closed diamond, blue) or SP1-DOX complex (closed triangle, yellow) at indicated concentrations. Proportion of living cells was determined by MTT assay, and the IC50 was calculated.
HT-29 cells were prepared as in FIG. 24 above.
Human colon adenocarcinoma (HT-29) cells. The cells were grown in 50-ml flasks containing DMEM medium (Biological Industries, Bet Haemek), supplemented with 10% fetal calf serum, 1% glutamine and 1% Antibiotic-Antimicotic solution (Biolab, Israel). The cells were trypsinizated, and 2 ml medium containing 5×10^4 cells were plated in each well of a 6-wells plate. SP1, drugs or SP1-complexed with drugs was added at the indicated concentrations. The cells were incubated at 37° C. in a humidified atmosphere containing 5% CO2.After 48 hours the medium in the presence or absence of drugs was replaced in each well respectively, to maintain a constant supply of ingredients and drugs. After four days the medium was removed and the number of viable cells in the cultures was determined by spectroscopy.
The human colorectal adenocarcinoma cell line, HT-29, was used to evaluate the biological activity of the SP1-DOX complex, compared to that of the free drug and un-complexed SP1 protein. […] Thus, the SP1-DOX complex is at least as biologically active as free DOX.

Series [3] in a line: Heat stability (no precipitation after heat treatment). The note with it: 10 min at 100° C. or 30 min at 85° C.
The nature of series [4]: Doxorubicin complex formation and release (ultrafiltration, HPLC, SDS PAGE fluorescence). The class given is binding. The note with it: reducing conditions (DTT or GSH). On the procedure: Pure wild type SP1 or Cys2 SP1 mutant (1.5 mg/ml in 20 mM Sodium Phosphate buffered, pH=6.8) were incubated overnight at room temp, with DOX 1 mg/ml in the presence of DTT (10 mM), with gentle rolling. Binding reaction was stopped by adding hydrogen peroxide (0.01%), followed by ultra filtration (using 30 kD cutoff filter) and extensive wash until follow-through become colorless. Optical density was measured at both 278 and 477 nm using nanodrop spectrophotometer. Note the dramatic effect of the reducing agent on drug binding by the Cys2 SP1, compared to the absence of effect on the wild type SP1.
FIG. 13 is a histogram illustrating the redox-dependent release of Doxorubicin by Cys2 SP1. Doxorubicin (DOX) was complexed within Cys2 SP1 as described in FIGS. 9-12 above. Release of the drug in the presence of 0, 2 and 20 mM GSH was measured by ultrafiltration and size exclusion HPLC analysis (detection at 228 and 475 nm);
FIG. 14 is a histogram illustrating the effect of oxidation on DOX complex formation by Cys2 SP1. Doxorubicin (DOX) was reacted with Cys2 SP1 and wild type SP1 as described in FIGS. 9-13 above. Oxidized protein indicates exposure to excess of H2O2 prior to treatment with GSH. DOX complex formation was measured by ultrafiltration and size exclusion HPLC analysis (detection at 228 and 475 nm). […] 1=the retentate; 2=the flow through; and 3=a DOX standard 20 μg/ml.
FIG. 17 is a photograph of a fluorescent PAGE analysis illustrating effective complex formation with DOX by Cys2 and SP1 fusion proteins. Recombinant wild type (lanes 1 and 2), Cys2 (lanes 3 and 4), and SP1 fusion proteins having additional N-terminal tumor specific peptide RGD (CRGD, SEQ ID NO:151; fusion protein is SEQ ID NO: 5)(lanes 5 and 6), or RGD in reverse order (RGDC, SEQ ID NO: 152; fusion protein is SEQ ID NO: 6)(lanes 7 and 8) were reacted with DOX to form complex as described in FIGS. 9-14 above, and then separated on SDS-PAGE with (lanes 2, 4, 6 and 8) or without (lanes 1, 3, 5 and 7) denaturation by boiling in LSB.
Ultrafiltration was used for the detection of complex formation with the water soluble ligands FA and DOX which have a distinctive absorption properties and can be determined by spectroscopic measurements. […] Several additional washing cycles remove all remaining free FA and DOX, and the ligand-SP1 complex remains in the retained fraction.
Size exclusion chromatography is a common method for separation of molecules of different sizes under mild conditions and was employed to test FA and DOX complex formation under mild conditions. SP1 is eluted from the column after 7 min and is detected at 278 nm only, and free FA is eluted from the column (TSK G3000 SWXL, Tosohaas) after 16 min and is detected at 490 nm. The SP1-FA and SP1-DOX complexes also eluted at the same time but is detected also at 490 and 475 nm, respectively. DOX/SP1 ratio is determine from the standard curve obtained in solution.
Reverse phase HPLC (RP-HPLC) analysis separates between free DOX, PXT, and SP1. Both compounds bind to the resin (C-18) and are eluted at different acetonitrile concentrations, and detected at both 278 and 225 nm (SP1), 225 nm (PTX) and 477 nm (DOX).
Pyrogen free Cys2 SP1 variant (SEQ ID NO:3) in 20 mM (Na Phosphate buffer pH-6.7) final 2 mg/ml was diluted with DOX solution (Teva, Israel) 1:2 dilution final 1 mg/ml. Where indicated, GSH was added, and the solution is mixed overnight. Where indicated (oxidized), H2O2 is added to 0.1%, buffer added to 3× volume, and the solution is sonicated (3×22 sec. 1:1 pulse/pause at 3% amplitude 0.5 min. pause, using a Vibra-Cell 750 W sonicator).

A short description of series [5]: Protein melting point by DSC. The class given is physicochemical. On the procedure:
Differential scanning calorimetry study of SP1 indicates in a Tm of 107° C. for SP1. […] Further, folding and refolding of inclusion bodies including insoluble SP1, and the heat stability of the unfolded proteins indicate that the intact monomer, as well as the oligomer, is heat resistant (FIG. 5).

Take “wild type: stress related SP1 protein from aspen (Populus tremula), recombinant, SEQ ID NO:1”: the “disassociation of the complex” value in series [1] (1734-fold SDS (1%), temperatures of 80° C. or lower) is given as “did not cause significant disassociation of the complex”. Further, in series [1] (accompanied by boiling before loading onto the gel), the “molar ratio (SDS:SP1-monomer) required for dissociation of the complex to monomers” value is recorded as “greater than 600”. In series [1] (without boiling, SDS ratio of 3467 to 1), the “state of SP1 on SDS-PAGE” value is given as “remained as a complex”. For the same substance, the IC50 entry is “inactive” in series [2] (listed as SP1) and “absence of cytotoxicity” in series [2] (listed as SP-1). Further, the Heat stability result in series [3] is on record as “+”. Moreover, the results for the DOX complex formation entry in series [4] and in series [4] (listed as wild type SP1) were “much lower extent” and “no complexes are formed”, respectively. Further, the Tm in series [5] (Differential scanning calorimetry) is 107 °C; in series [5] (protein melting point by DSC, in °C (unit assumed)) it was 107.
